The series can be described thus: yeast display, Sf9 membrane polyspecificity reagent, FACS + sequencing; frameworks hold sequencing errors. The method, boiled down: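 Using colony PCR, genes from sorted yeast display clones were amplified, then sequenced on MiSeq at 2 × 250 and filtered by CDR length. The clones had been stained with 10% biotinylated, detergent-solubilized Sf9 membrane reagent for 1 hour at 4 °C and sorted by FACS into low and high (top ~1%) gates on anti-HA and streptavidin fluorescence. Polyreactivity labels come from the gate of origin.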
Take “QVHLVESGGGLVQAGGSLRLSCAASGSTSYVYAMGWYRKAPGKERELVAAISGSGGRTYYADSVKGRFTISRDNAKNTVYLQMNSLKPEDTAVYYCNALPRPSYPFDYWGQGTQVTVSS”: the “polyreactivity (PSR sort gate)” value is recorded as “high polyreactivity”. Then “QVQLVESGGGLVQAGGSLRLSCPASGFTFGYYAMGWYRQSPGKESELVATITSSGASTYADSVKGRFTISGDNAKNTVYLQMISLKPEDTAVYYCAADRLPSYWSWYGYDYWVQGTQVTVSS”, with “high polyreactivity”; and “QVQLVESGGGLVQAGGSLRLSCAASGLSCYPYAMGWYRQAPGKEMELVAAITSGDSTYYADSVKGRFTISRDNAKNTVYLQMNSLKPVDTAVYYCAKPDWVEVVTDFEYWGQGTQVTVSS”, with “low polyreactivity”. Then “QVQLVESGGGLVQAGGSLRLSCAASGSTFEYNAMGWYRQAPGKERELVASSTNYADSVKGRFTISRDNAKNTVYLQMNSLIPEDTAVYYCAREQGVNRNHDYWGQGTQVTVSS”, with “low polyreactivity”; and “QVQLVESGGGLVQAGGSLRLSCAASGRIFRYYAKGWYRQAPGKERELVARIRWSGGSTYYADSVKGRFTISRDNAKNTVYLQMNSLKPEDTAVYYCNAGSWSYRYNYWGQGTQVTVSS”, with “high polyreactivity”. With “QVQLVESGGGLVQAGGSLRLSCAASGFIFRFYAMGWYRQAPGKEREVVAVISRSGGSTYYADSVKGRFTISRDHAKNTVYLQMNSLKPEDTAVYYCAATFYWDSVRRGDYDYWGQGTQVTGSS”, the “polyreactivity (PSR sort gate)” value is given as “high polyreactivity”. Then “QVQLLESGGGLVQAGGSLRLSCAASGRTFTRNAMGWYRQAPGKERELVAAISYRVGSTYYADSVKGRFTISRDNAKNTVYLQMNSLKPEDTAVYYCATGRGHSYGGDDYWGQGTQVTVSS”, with “high polyreactivity”; and “QVQLVESGGGLVQAGGRLRLTCAASGITFTGNAMGWYRQAPGKERELVAVITSGGSTYYADSVKGRFTISRDNAKNTVYLQMNSLKPEDTAVYYCAAPVYYYYSKAMDYWGQGTQVTVSS”, with “high polyreactivity”.

In the case of “QVQLVESGGGLVQAGGSLRLSCAASGLTFQLYTMGWYRQAPGKERELVAAISRSGTRTYYADSVKGRFTISRDNAKNTVYLQMNSLKPEDTAVYYCAARTDGYRNNYWGQGTQVTVSS”, the “polyreactivity (PSR sort gate)” value was “high polyreactivity”.

With “QVQLVESGGGLVQAGGSLRLSCAASGRTFLRYAMGWYRQAPGKEREFVAAISYSGSRTYYADSVKGRFTISRDTAKKTVYLQMNSLKPEDTAVYYCATDSDARVELAGYDYWGQGTQVTVSS”, the “polyreactivity (PSR sort gate)” value was “high polyreactivity”. For “QVQLVESGGGLVQAGGSLRLSCAASGRTFWGNAMGWYRQAPGKERELVASISSRGSSTYYADSVKGRFTISRDNAKNTVYLQMNSLKPEDTAVYYCAARTHYFPWPWYVWDYDSWGQGTQVTVSS”, the “polyreactivity (PSR sort gate)” value is listed as “low polyreactivity”. In the case of “QVQLVESGGGLVQAGGSLRLSCAASGLNFKLYAMGWYRQAPGKEREFVATITGIGGSTYYADSVKGRFTISRDNAKNTVYLQMNSLKPEVTAVYYCAGDAWFLPYNYWGQGTQVTVSS” it was “low polyreactivity”; in that of “QVQLVESGGGLVQAGGSLRLSCAASGSPSYFNVKGWYRQAPGKERQLVAAISWSGGSTYADSVKGRFTISRDNAKNTVYLQMNSLKREDTAFYYCNKDYGYVQLRFYCPGYYWGQGTQVTVSS”, “low polyreactivity”.

For “QVQLVESGGGLVQAGGSLRLSCAASGRIFGYYAMGWYRQAPGKERELVAGIDWSGGNTYYADSVKGRFTISRDNAKNTVYLQMNSLKPEDTAVYYCNTVGGRDTAWYDYWGQGTQVTVSS”, the “polyreactivity (PSR sort gate)” value is reported as “low polyreactivity”. For the sequence “QVQLVESGGGLVQAGGSLRLSCAASGRTFGYYAMGWYRQAPGKERELVAAITGSGGSTYYADSVKGRFTISRDNAKNTVYLQMNSLKPEDTAVYYCAVESVRTRGWIRLDYWGQGTQVTVSS”, the “polyreactivity (PSR sort gate)” value was “high polyreactivity”. Then “QVQLVESGGGLVQAGGSLRLSCAASGSTFVSNAMGWYRPAPGKERELVASISQSGGGTDYADSVKGRFTISRDNAKNTVYLQMNSLKPEDTAVYYCAADRVPVQAPYDYWGQGTQVTVSS”, with “high polyreactivity”. Then “QVQLVESGGGLVQAGGSLRLSCAASGSTLRYYAMGWYRQAPGKEREFVAAISWRGGSTYYADSVKGRFTISRDNAKNTVYLQMNSLKPEDTAVYYCAAKALYAYRLYDYWGQGTQVTVSS”, with “high polyreactivity”; and “QVQIVESGGGLVQAGGSLRLSCAASGSIFVWYAMGWYRQAPGKERELVARITSGGRTNYADSVKGRFTISRDNAKNTVYLQMNSLKPEDTAVYYCAAGRVSWSPYYYWGQGTQVTVSS”, with “high polyreactivity”; and “QVQLVESGGGLGQAGGSLRLSCAASGSTFYLNAMGWYRQATGKERELVAAINSGDSTNYADSVKGRFTISRDNAKNTVYLQMNSLKPEDTAVYYCARDRFPSEGDYWGQGTQVTVSS”, with “low polyreactivity”. Then “QVQLVESGGGLDQAGGSLRLSCAASGFIFKYYVMGWYRQAPGKERELVAAISLSDARTNYADSVKGRFTISRDNAKNTVYLQMHSLKPVDTAFYYCAAKSHYYTSGHRHYDYWGQGTQVTVSS”, with “high polyreactivity”; and “QVQLVESGGGLVQAGGSLRLSCAASGITFVDNAMGWYRQAPGKERELVAAISFSGDTTYYADSVKGRFTISRDNEKNTVYLQMNSLKPEDTAVYYCAAEYYYTWVYQYWEMDYWGQGTQVTVSS”, with “low polyreactivity”. For “QVQLVESGGGLVQAGGSLRLSCAASGFTFIYAMGWYRQAPGTERELVAAITRSGGSTYYADSVKGRFTISRDNAKNTVYLQMNSLKPEDTAVYYCAAEAVIYYSSYFEYYYWGQGTQVTVSS”, the “polyreactivity (PSR sort gate)” value is “high polyreactivity”. With “QVQLVESGGGLVQAGGSLRLSCAASGRTFGTYAMGWYRQAPGKQRELVAAISSGGSTYADSVKGRFTISRDNAKNTVYLQMNSLKPEDTAVYYCNADYRARNYHYYPRRFKYYYWGQGTQVTVSS”, the “polyreactivity (PSR sort gate)” value is “high polyreactivity”. In the case of “QVQLVETGGGLVQAGGSLRLSCAASGSTFYNYAMGWYRQAPGKEREFVAAISWGGGSTRYADSVKGRFTISRDYAKNTVYLQMNSLKPEDTAVYYCAARYPHYDYYYWGQGTQVTVSS” it was “high polyreactivity”; in that of “QVQLVESGGGLVQAGGSLRLSSAASGSTIGYYAMRWYRQAPGKERELVAAISWSGGSTYYADSVKGRFTISRDNAKNTVYLQMNSLKPEDTAVYYCAADTYPDYYLVEYYYWGQGTQVTVSS”, “low polyreactivity”.

With “QVQLVESGGGLVQAGGSLRLSCAASGSTFGKYAMGWYRQAPGKERELVAAITRRTGSTYYADSVKGRFTISRDNAKNTVYLQMNSLKPVDTAVYYCAARLPQYRYDYWGQGTQVTVSS”, the “polyreactivity (PSR sort gate)” value is on record as “high polyreactivity”. In the case of “QVQLVESGGGLVQAGGSLRLSCAASGLTFAVYAMGVYRQAPGKEREVVAAINWSGGSTSYADSVKGRFTISRDNAKNTVYLQMNSLKPEDTAVYYCAAVPGSYSYWRVWYGYDYWGQGTQVTVSS” it was “high polyreactivity”; in that of “QVQLVESGGGLVQAGGSLRLSCAASGSIFGPSAMGWYIQAPGKERDLVAGITRSVGSTYYADSVKGRFTISRDNAKNTVYLQMNSLKPEDTADYYCNAKWLYSRWAGYDYWGQGTQVTVSS”, “low polyreactivity”; in that of “QVQLVESGGGLVQAGGSLRLSCAASGRTFYRYAMGWYRQAAGTERELVAAISRSGGSTYYADSVKGRFTISRDHAKYTVYLQMNSLKPQDTAVYYCAAGYDGYKQGGGGYWGQGTQVTVSS”, “high polyreactivity”.

In the case of “QFQLVESGGGLVQEGGSLRLSCAPSGSTFRFYAMGWYRQSPGKERELVAVISSAGSTNYADSVKGRFTISRDNAKNTVYLQMNSLKPEDTAVYYCAAYRRYSIYNYWGEGTQVTVSS”, the “polyreactivity (PSR sort gate)” value is listed as “high polyreactivity”.

The values are drawn from the nanobody polyreactivity screen of Harvey et al. (2022).
